In the supplement of paper PMC9170038:

Columns and labels:
MS2 coat protein [1] = test: apparent KD of MS2 coat protein; designed switch direction (-1 OFF switch, 1 ON switch): 1; higher = weaker reporter binding
How it was run: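 Designed RNA switches sharing common flanks were transcribed on Illumina chips by stalled E. coli RNA polymerase. They were titrated with SNAP-549-labelled MS2 coat protein, from 0.7 or 1.5 nM doubling to 3 µM, in Tris-HCl pH 7.5 buffer with KCl, MgCl2, BSA, DTT, tRNA and Tween-20. Titrations ran without input, with 200 uM small-molecule ligand, or with an oligonucleotide input. The apparent KD of each design is the median over its clusters, after curve-fitting of normalised cluster fluorescence.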

MS2 coat protein [2] = test: apparent KD of MS2 coat protein; higher = weaker reporter binding; settings: Eterna round: R107
How it was run: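 Apparent KD stands for the median, per design, of fits to normalised cluster binding curves. The curves came from titrating on-chip-transcribed RNA switches on Illumina sequencing clusters with SNAP-549-labelled MS2 coat protein, twofold from 0.7 or 1.5 nM to 3 µM. Buffer was 100 mM Tris-HCl pH 7.5, 80 mM KCl, 4 mM MgCl2, without or with constant ligand.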

[3] = Eterna round: R95, input ligand: FMN 200 uM
[4] = Eterna round: R95, input ligand: microRNA oligo, concentration not stated
[5] = Eterna round: R95, input ligand: none
[6] = input ligand: microRNA oligo, concentration not stated
[7] = input ligand: theophylline 20 uM
[8] = input ligand: tryptophan 2.4 mM
[9] = input ligand: theophylline 2 mM

GGUCCAGCUUUUGCUGGUCCUUCGCUUGCACAUGAGGAUCACCCAUGUCGUGUACAUGCUUGGUGCCCGUCUUUUUU [Photon Torp-16] (puzzle: Sensor for hsa-mir-208a)
apparent KD of MS2 coat protein (MS2 coat protein [1]; [3]): 137 nM | apparent KD of MS2 coat protein (MS2 coat protein [1]; [4]): 44.9 nM | apparent KD of MS2 coat protein (MS2 coat protein [1]; [5]): 229 nM

GCAGUACAUGAGGAUCACCCAUGUCUCUAAAGUCGAGGAUAUGGGCAGGUUAUAUCCGAACCAGAAGGCGAACUGC [SS1 Teenbexe 11] (puzzle: Same State 1)
apparent KD of MS2 coat protein (MS2 coat protein [1]; [3]): 68.6 nM | apparent KD of MS2 coat protein (MS2 coat protein [1]; [4]): 260 nM | apparent KD of MS2 coat protein (MS2 coat protein [1]; [5]): 527 nM

GGUAAGAAUUAAGGAUAUUGAAUACAUAUGUUUAACAUGAGGAUCACCCAUGUGGGUUGCGGUGUCGAGAAGGUAAAAUAAUAG [Mat - same State NG 2 - JL mod - D101] (Eterna round: R96, puzzle: Same State NG 2)
apparent KD of MS2 coat protein (MS2 coat protein [1]; input ligand: FMN 200 uM): 269 nM | apparent KD of MS2 coat protein (MS2 coat protein [1]; [6]): 166 nM | apparent KD of MS2 coat protein (MS2 coat protein [1]; input ligand: none): 311 nM

GCUCGAUGAGCUGUUUACAUGAGGAUCACCCAUGUAAAUGGGCAGGAUAUUUACGUGCUUUGUGUAGAGAAGGGCCCAUCGAGC [SameState NG3 #76] (Eterna round: R96, puzzle: Same State NG 3)
apparent KD of MS2 coat protein (MS2 coat protein [1]; input ligand: FMN 200 uM): 32.4 nM | apparent KD of MS2 coat protein (MS2 coat protein [1]; [6]): 103 nM | apparent KD of MS2 coat protein (MS2 coat protein [1]; input ligand: none): 235 nM

UCUUGGUUUUUGCUCGUUUUUUGUGUUGAACAUGAGGAUCACCCAUGUAUUGUACGGUCCAGUUUGGUGGUAGUCCG [JMF 71] (puzzle: Sensor for hsa-mir-208a)
apparent KD of MS2 coat protein (MS2 coat protein [1]; [3]): 32.9 nM | apparent KD of MS2 coat protein (MS2 coat protein [1]; [4]): 24.4 nM | apparent KD of MS2 coat protein (MS2 coat protein [1]; [5]): 38 nM

AAACAUUGCUCAGAUACCAGACAUGAGGAUCACCCAUGUACCGAGGUACCCGAAAGGAAUGUCCCUUGGCAGCUGAGCAAUGAAA [MAT - Exclusion Theophlline B - Mod of Eli - D22]
apparent KD of MS2 coat protein (MS2 coat protein [2]; input ligand: arginine 13.2 mM): 14.2 nM | apparent KD of MS2 coat protein (MS2 coat protein [2]; [7]): 15.3 nM | apparent KD of MS2 coat protein (MS2 coat protein [2]; [8]): 11.4 nM

GUUGGAUACUCGGCCGCCACUGAGAGAGUCAUGUGAACAUGAGGAUCACCCAUGUAAUAUAUAUACAGGACCGGGAGUGUUGUAA [4.I]
apparent KD of MS2 coat protein (MS2 coat protein [2]; input ligand: arginine 13.2 mM): 20.3 nM | apparent KD of MS2 coat protein (MS2 coat protein [2]; [7]): 43.7 nM | apparent KD of MS2 coat protein (MS2 coat protein [2]; [9]): 32.5 nM

AACUUCGCAUAGGAAAACUAUGUGAAGAAUCGAGGACCGGUACGGCCGCCACUCGUCCUCAACAUGAGGAUCACCCAUGUAAUAA [Mat - Exclusion - Trytophan A - D4]
apparent KD of MS2 coat protein (MS2 coat protein [2]; input ligand: arginine 13.2 mM): 22.1 nM | apparent KD of MS2 coat protein (MS2 coat protein [2]; [7]): 25.4 nM | apparent KD of MS2 coat protein (MS2 coat protein [2]; [9]): 22.6 nM

GACCGAUUAUAGCACGAUUGUCUUGUGGAAGGAGCGCAGAGGGCUGCAGGUAGGUCGCCACAUGAGGAUCACCCAUGUCAGGAUA [Raanti]
apparent KD of MS2 coat protein (MS2 coat protein [2]; input ligand: arginine 13.2 mM): 4.57 nM | apparent KD of MS2 coat protein (MS2 coat protein [2]; input ligand: none): 60 nM | apparent KD of MS2 coat protein (MS2 coat protein [2]; [7]): 66.6 nM | apparent KD of MS2 coat protein (MS2 coat protein [2]; [9]): 59.1 nM | apparent KD of MS2 coat protein (MS2 coat protein [2]; [8]): 46.6 nM

GGGACUAGAUCGGCCGCCACUGAUGGGACAUGAGGAUCACCCAUGUACGAAGUGAUCCAAUAAAUCAGGACCGGGAUCACUUGUA [Tryp B Ex t6]
apparent KD of MS2 coat protein (MS2 coat protein [2]; input ligand: arginine 13.2 mM): 64.3 nM | apparent KD of MS2 coat protein (MS2 coat protein [2]; [7]): 137 nM | apparent KD of MS2 coat protein (MS2 coat protein [2]; [9]): 173 nM

UGUAUUGGAAACAGUACUAGUGAUCCGGUCCGAGGACCGGUACGGCCGCCACUCGAUAUAAAUAAACAUGAGGAUCACCCAUGUA [Ex Tryptophan A 13]
apparent KD of MS2 coat protein (MS2 coat protein [2]; input ligand: arginine 13.2 mM): 23.3 nM | apparent KD of MS2 coat protein (MS2 coat protein [2]; [7]): 17.1 nM | apparent KD of MS2 coat protein (MS2 coat protein [2]; [9]): 18 nM

CUAUAAAUAGCGGCCGCCACUUACUCAUGAGGUAACAACAUGAGGAUCACCCAUGUUUGAGGAUCAAGGACCGGGCUAUUUAUAG [AstrosSSTryB#8]
apparent KD of MS2 coat protein (MS2 coat protein [2]; input ligand: arginine 13.2 mM): 23.7 nM | apparent KD of MS2 coat protein (MS2 coat protein [2]; [7]): 32.8 nM | apparent KD of MS2 coat protein (MS2 coat protein [2]; [9]): 36.1 nM

GUAGCUAUCGCGGCCGCCACUAAACCGGAAACGGAACAGGAGGAUCACCCUUGUGGCGAAAGCCAUAGGACCGGGCGAUAGCUAC [TryBS - Double Magnet system]
apparent KD of MS2 coat protein (MS2 coat protein [2]; input ligand: arginine 13.2 mM): 224 nM | apparent KD of MS2 coat protein (MS2 coat protein [2]; [7]): 457 nM | apparent KD of MS2 coat protein (MS2 coat protein [2]; [9]): 735 nM | apparent KD of MS2 coat protein (MS2 coat protein [2]; [8]): 46.3 nM

GGAUCCAUCCGAAGGAGCGUCGGAAAUGGGUAAACAUGAGGAUCACCCAUGUAAAGGGAACGGCAGGUAGGUCGCGGAUGGAUCC [#25 Same State - Arginine B]
apparent KD of MS2 coat protein (MS2 coat protein [2]; input ligand: arginine 13.2 mM): 132 nM | apparent KD of MS2 coat protein (MS2 coat protein [2]; input ligand: none): 99.1 nM | apparent KD of MS2 coat protein (MS2 coat protein [2]; [7]): 167 nM | apparent KD of MS2 coat protein (MS2 coat protein [2]; [9]): 157 nM | apparent KD of MS2 coat protein (MS2 coat protein [2]; [8]): 195 nM

GCCGCGGCCGCGAUACACAUGGGUGUGUAACGAGGACCGGUACGGCCGCCACUCGAGAUGAUGUACAUGAGGAUCACCCAUGUAC [Exclusion Tryp A GF13]
apparent KD of MS2 coat protein (MS2 coat protein [2]; input ligand: arginine 13.2 mM): 11.8 nM | apparent KD of MS2 coat protein (MS2 coat protein [2]; input ligand: none): 11.6 nM | apparent KD of MS2 coat protein (MS2 coat protein [2]; [7]): 15.4 nM | apparent KD of MS2 coat protein (MS2 coat protein [2]; [9]): 11.9 nM | apparent KD of MS2 coat protein (MS2 coat protein [2]; [8]): 13.9 nM

AGCGCAGGUCCUGAUACCAGUGACAUGAGGAUCACCCAUGUCCGAUGGGCCUGCCUCUGACACCCUUGGCAGCAGGGCUUGUGCU [#14 Exclusion-TheophyllineB]
apparent KD of MS2 coat protein (MS2 coat protein [2]; input ligand: arginine 13.2 mM): 20 nM | apparent KD of MS2 coat protein (MS2 coat protein [2]; [7]): 49.8 nM | apparent KD of MS2 coat protein (MS2 coat protein [2]; [8]): 21.3 nM

GGCGCGCGCCAACAUGAGGAUCACCCAUGUCGAGGACCGGUACGGCCGCCACUCGAACGAGUGAAGCGCGCGCGCGGGCGACCGC [Saa]
apparent KD of MS2 coat protein (MS2 coat protein [2]; input ligand: arginine 13.2 mM): 36.6 nM | apparent KD of MS2 coat protein (MS2 coat protein [2]; input ligand: none): 39.7 nM | apparent KD of MS2 coat protein (MS2 coat protein [2]; [7]): 42.5 nM | apparent KD of MS2 coat protein (MS2 coat protein [2]; [9]): 47.1 nM | apparent KD of MS2 coat protein (MS2 coat protein [2]; [8]): 77.1 nM
